{
  "source": "paper doi:10.1101/162842",
  "molecular_target": "mCardinal",
  "assay": "SEC + AUC",
  "data": [
    {"substance": "mCardinal", "values": [
      {"measurement": "stoichiometry N", "value": 2}
    ]}
  ]
}
